The source of these data is patent US20240301373, “FANZORS ARE RNA-GUIDED NUCLEASES ENCODED IN EUKARYOTIC GENOMES” (Massachusetts Institute of Technology, published 2024).

One data set concerns the target T1, BaFNuc (Batillaria attramentaria).
T1 chain: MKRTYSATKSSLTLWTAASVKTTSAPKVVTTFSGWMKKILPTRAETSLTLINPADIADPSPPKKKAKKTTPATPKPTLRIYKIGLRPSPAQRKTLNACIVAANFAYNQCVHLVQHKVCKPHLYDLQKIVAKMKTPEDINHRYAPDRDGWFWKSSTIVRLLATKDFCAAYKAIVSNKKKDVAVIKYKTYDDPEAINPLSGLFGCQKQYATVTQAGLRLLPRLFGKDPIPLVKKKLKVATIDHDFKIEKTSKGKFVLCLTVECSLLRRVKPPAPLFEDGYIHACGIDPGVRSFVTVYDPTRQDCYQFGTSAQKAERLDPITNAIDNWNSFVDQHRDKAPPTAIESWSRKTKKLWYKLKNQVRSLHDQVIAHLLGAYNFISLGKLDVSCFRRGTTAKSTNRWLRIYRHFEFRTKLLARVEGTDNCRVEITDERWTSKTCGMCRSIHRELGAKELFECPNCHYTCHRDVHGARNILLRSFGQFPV
As to the kind of experiment: pulldown; co-purified fRNA sequenced. An excerpt: (§1) This study sought to explore whether Fanzor2 proteins from diverse eukaryotes also are active RNA-guided nucleases. Three Fanzor2 representatives from three animals and a Fanzor1 representative from a plant were chosen for this study: 1) Fanzor2 from Aercenaria mercenaria (Venus clam, MmFNuc), 2) Fanzor2 from Dreissena polymorpha (Zebra mussel, DpFNuc), 3) Fanzor2 from Batillaria attramentaria (Japanese mud snail; BaFNuc), and 4) Fanzor1 from Klebsormidium nitens (freshwater green algae; KnFNuc) (FIG. 21A). […] Constructs for co-expression of the fRNA and Fanzor nuclease were cloned in a cell-free transcription/translation system, allowing for isolation of the resulting RNPs to study their fRNA sequences and cleavage activity (FIG. 21B). […] These fRNAs were highly structured with diverse structural motifs and domains (FIG. 28B).

Data set [1] addresses T2, ApmFNuc (ApmHNuc, Isvmimi Fanzor2) (Acanthamoeba polyphaga mimivirus, UniProt Q5UPQ8 SEQ:1-520).
T2 sequence: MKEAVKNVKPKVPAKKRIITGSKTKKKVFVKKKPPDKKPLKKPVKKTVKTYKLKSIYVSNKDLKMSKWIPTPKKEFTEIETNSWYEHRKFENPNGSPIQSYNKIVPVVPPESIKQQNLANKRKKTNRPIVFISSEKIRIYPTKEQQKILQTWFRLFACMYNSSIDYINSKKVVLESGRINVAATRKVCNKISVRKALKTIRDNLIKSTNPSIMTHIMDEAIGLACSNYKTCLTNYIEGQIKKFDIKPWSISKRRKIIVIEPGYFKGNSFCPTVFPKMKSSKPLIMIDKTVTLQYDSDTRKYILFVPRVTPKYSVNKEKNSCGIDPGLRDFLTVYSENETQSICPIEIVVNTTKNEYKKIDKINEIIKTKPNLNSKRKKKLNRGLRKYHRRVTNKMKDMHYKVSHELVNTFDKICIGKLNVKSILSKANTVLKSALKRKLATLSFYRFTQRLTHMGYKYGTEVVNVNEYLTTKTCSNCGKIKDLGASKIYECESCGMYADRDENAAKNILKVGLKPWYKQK
Put plainly: pulldown; co-purified fRNA identified by small RNA sequencing. The settings on record: tags: Strep tag; RNP co-expressed with fRNA in E. coli.

In another data set the target is T3, KnFNuc (Fanzor1) (Klebsormidium nitens).
T3 chain: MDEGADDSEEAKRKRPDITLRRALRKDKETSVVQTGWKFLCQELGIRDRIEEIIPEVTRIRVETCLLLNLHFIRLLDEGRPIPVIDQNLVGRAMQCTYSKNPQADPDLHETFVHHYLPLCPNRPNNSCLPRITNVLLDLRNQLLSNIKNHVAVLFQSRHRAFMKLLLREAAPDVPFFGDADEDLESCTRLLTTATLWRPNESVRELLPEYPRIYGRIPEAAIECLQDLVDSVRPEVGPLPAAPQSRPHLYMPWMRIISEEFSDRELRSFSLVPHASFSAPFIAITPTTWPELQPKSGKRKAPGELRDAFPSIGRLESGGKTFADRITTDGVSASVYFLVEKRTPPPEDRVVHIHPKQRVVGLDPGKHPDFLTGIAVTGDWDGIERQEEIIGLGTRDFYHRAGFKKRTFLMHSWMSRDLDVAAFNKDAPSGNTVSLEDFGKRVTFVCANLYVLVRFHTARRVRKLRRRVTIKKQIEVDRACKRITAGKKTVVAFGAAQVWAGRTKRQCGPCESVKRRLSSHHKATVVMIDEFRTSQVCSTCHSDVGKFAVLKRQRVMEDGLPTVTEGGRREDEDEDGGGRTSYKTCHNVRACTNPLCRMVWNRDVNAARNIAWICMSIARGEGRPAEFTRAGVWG
As to the kind of experiment: pulldown; co-purified fRNA sequenced.
Excerpt: as §1

Another data set addresses T4, MmFNuc (Mercenaria mercenaria).
T4 chain: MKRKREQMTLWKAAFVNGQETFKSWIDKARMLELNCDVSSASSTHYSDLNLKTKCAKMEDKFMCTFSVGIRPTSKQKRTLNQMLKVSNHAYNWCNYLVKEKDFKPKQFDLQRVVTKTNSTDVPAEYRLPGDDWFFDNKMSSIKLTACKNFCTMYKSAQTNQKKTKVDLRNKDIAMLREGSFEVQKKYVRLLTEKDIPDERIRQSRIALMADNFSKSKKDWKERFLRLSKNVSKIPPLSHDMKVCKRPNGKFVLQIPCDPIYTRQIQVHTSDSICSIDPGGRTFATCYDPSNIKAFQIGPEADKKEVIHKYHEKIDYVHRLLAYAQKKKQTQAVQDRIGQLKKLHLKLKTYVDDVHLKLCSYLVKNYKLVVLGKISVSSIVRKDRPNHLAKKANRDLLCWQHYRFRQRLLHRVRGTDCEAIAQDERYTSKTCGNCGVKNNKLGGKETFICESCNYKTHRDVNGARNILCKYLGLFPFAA
Put plainly: pulldown; co-purified fRNA sequenced.
Excerpt: as §1

Another data set addresses T5, DpFNuc (Dreissena polymorpha).
T5 chain: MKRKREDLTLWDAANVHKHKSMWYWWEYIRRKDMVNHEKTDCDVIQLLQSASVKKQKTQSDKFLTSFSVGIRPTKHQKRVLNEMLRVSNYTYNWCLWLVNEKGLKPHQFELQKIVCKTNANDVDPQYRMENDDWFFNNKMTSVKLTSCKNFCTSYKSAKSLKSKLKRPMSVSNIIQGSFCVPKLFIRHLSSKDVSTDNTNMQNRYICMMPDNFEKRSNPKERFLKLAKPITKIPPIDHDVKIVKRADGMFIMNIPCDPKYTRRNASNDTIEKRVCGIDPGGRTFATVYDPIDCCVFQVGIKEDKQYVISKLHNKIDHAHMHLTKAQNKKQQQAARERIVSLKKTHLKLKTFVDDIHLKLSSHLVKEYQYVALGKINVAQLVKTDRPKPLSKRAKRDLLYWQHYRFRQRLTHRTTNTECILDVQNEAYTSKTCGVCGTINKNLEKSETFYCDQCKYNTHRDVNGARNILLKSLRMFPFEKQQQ
As to the kind of experiment: pulldown; co-purified fRNA sequenced.
Excerpt: as §1

B1: BaFNuc fRNA scaffold (ssRNA)
RNA: CGCUCGAGUGGAGGGAACUGACAACUGUAGAGUGGAGAUCACCGACGAACGCUGGACCUCAAAGACGUGUGGCAUGUGCAGAUCCAUCCACCGCGAACUUGGGGCAAAAGAACUAUUCGAGUGCCCCAACUGCCACUACACCUGCCACAGAGACGUGCACGGAGCUCGAAACAUCUUGCUGAGAAGCUUCGGACAGUUUCCAGUCUAGAAAAACACGAACUUUUUCCUUGGCCCAAGGAUUGCCAAACACCACUCAAAUCCUCGUUCAGGGGCCUCGAGUGGCUGGGCAUAUAUGGGUUA
Turning to B1, in the data set with BaFNuc, the binding result is recorded as “binds”.

B2: ApmFNuc fRNA scaffold (21 nt 3' guide appended) (ssRNA)
RNA: AAAAAUAGUCUAAUAAAAUCAGGGGUACAUUCCGCUAGUACUCCACCCUACGGGUUAAGCAAAUGAGAAUAUCGAAACGGUAUGCACAGGAUUCUUCGAGUGAUAAUCUUAGGAUGACUCACUAAGGAGAUGACUAAAGUGUAUCAUUCAAUAUUGUAUUGAACGGUAUUCUUCCAUAGAGAGUUGAUUUUUGGAGUAUCCAGAAAUAUCAACUUUUUAUGAGCGG
With B2, the binding result in data set [1] is listed as “binds”.

B3: KnFNuc fRNA scaffold (ssRNA)
RNA: GGAGGAGGGAGGACAAGCUACAAGACGUGCCACAACGUGCGAGCGUGUACGAACCCGCUCUGUCGCAUGGUGUGGAAUAGAGACGUCAACGCAGCUCGUAACAUAGCUUGGAUCUGUAUGAGCAUAGUCAGAGGCGAGGGCAGGCCAGCGGAGUUCACGAGAGCAGGAAUGUGAGGAUGACUGAGAAUUAGUCGAAAGACAUAGCUGCCUAGAAACGAGUUCAUCUAGGCACUUCGGUGAGAAUCCGAGAUACGGCUGGGUACUGUGGCGAGUGUGCCAUUUUACUCUGAACAGACUGUA
Take B3: the binding result with KnFNuc (Fanzor1) is “binds”.

B4: MmFNuc fRNA scaffold (ssRNA)
RNA: ACUUCCAAGACCUGUGGUAAUUGCGGUGUGAAGAACAACAAACUUGGUGGAAAGGAAACGUUUACUUGUGAGUGUUGCAAUUACAAAACUCAUCGAGACGUCAACGGAGCGAGAAACAUUCUGUGCAAAUACUUGAAACUUUUUCCAUUCGCAGCAUAACGAAAGAAACUGACAAUCGAUUUUUUCGGGUUCGAUUCUAUCCCACUUGACUCAAAGAGUCAGAGGGCUCGAAUACAUUUUCUGCACAGGUUUUGCUAAUGCAAGAUCUGGGGCAAGAAUGUGUUCGGGUCAAAUGAGUUA
For the molecule B4, the binding result in the data set with MmFNuc is “binds”.

B5: DpFNuc fRNA scaffold (ssRNA)
RNA: AUUGGAUGUUCAAAAUGAAGCAUACACUUCGAAGACGUGUGGAGUGUGUGGAACAAUAAACAAAAAUCUAGAAAAGAGUGAAACAUUUUAUUGCGAUAACUGCAAAUAUAACACACACAGAGACGUUAAUGGUGCUAGAAAUAUUUUGCUAAAAUCGUUGCGCAUGUUUCCAUUUGUCAAUUCGCAGUUAUAAUUACUCUGUAACAAUUAGGUCGAUCCAUCCUAAAUUCGAAAGUCCAUUGCUACGAGACUUUGCGUAUGCUUAGUCCAGGGCAAUUUUCUGCCGAAUGAAAUGGGUUA
B5: in the data set with DpFNuc, the binding result is “binds”.
